# Data: article PMC4359367, “DNA binding polarity, dimerization, and ATPase ring remodeling in the CMG helicase of the eukaryotic replisome” (eLife, 2014)
# T1: Mcm5 (Drosophila melanogaster, UniProt Q9VGW6 1-733)
# T1 construct: Mcm5, Drosophila melanogaster, subunit of Mcm2-7; source: Hi5 cells, co-infection with baculoviruses; purified as part of the CMG (anti-FLAG agarose, Mono S, Mono Q) and in whole cell lysate
# T1 sequence (looked up): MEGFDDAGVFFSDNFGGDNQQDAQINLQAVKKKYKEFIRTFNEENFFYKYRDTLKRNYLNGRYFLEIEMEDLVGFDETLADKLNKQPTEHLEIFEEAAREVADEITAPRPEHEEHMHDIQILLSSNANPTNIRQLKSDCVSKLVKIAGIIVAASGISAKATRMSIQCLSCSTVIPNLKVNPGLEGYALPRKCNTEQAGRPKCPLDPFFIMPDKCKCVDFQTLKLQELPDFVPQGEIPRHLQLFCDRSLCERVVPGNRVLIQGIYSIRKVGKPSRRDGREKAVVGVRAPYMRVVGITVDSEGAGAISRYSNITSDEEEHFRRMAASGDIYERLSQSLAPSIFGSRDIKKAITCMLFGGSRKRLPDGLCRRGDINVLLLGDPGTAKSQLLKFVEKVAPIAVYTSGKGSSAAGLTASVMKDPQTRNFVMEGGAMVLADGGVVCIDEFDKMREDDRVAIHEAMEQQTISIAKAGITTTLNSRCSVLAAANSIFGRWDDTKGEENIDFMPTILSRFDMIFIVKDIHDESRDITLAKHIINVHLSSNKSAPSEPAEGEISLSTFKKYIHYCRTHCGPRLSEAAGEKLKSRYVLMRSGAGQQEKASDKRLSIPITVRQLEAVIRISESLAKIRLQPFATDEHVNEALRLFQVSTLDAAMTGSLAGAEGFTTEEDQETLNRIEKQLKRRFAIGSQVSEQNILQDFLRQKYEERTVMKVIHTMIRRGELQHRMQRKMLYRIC
# T2: Mcm2 (Drosophila melanogaster, UniProt P49735 1-887)
# T2 construct: Mcm2, Drosophila melanogaster, subunit of Mcm2-7; source: Hi5 cells, co-infection with baculoviruses; purified as part of the CMG (anti-FLAG agarose, Mono S, Mono Q) and in whole cell lysate
# T2 sequence (looked up): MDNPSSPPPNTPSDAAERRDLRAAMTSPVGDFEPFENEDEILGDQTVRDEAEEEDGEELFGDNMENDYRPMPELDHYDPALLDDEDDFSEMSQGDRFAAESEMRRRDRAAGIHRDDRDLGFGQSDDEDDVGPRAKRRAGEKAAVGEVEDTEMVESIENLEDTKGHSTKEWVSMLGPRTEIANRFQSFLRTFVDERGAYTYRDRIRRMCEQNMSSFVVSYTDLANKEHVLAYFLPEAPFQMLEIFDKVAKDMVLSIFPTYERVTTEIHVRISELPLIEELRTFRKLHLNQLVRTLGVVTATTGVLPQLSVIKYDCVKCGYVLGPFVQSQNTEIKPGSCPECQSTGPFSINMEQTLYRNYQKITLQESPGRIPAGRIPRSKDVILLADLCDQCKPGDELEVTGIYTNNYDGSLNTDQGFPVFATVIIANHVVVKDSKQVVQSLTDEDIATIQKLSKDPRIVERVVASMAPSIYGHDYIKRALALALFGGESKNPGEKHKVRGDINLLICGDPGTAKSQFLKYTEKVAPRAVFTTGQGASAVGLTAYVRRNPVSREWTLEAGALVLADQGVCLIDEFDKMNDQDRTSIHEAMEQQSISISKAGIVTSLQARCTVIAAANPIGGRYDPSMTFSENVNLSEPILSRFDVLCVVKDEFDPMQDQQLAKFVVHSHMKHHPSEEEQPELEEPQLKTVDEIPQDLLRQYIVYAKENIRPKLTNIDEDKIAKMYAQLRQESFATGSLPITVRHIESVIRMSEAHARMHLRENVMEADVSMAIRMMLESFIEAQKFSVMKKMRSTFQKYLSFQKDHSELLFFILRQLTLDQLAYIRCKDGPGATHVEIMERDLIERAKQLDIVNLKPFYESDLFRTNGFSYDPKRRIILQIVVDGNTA
# B1: Psf1 (natural protein, Drosophila melanogaster, UniProt Q9W0I7 1-202, looked up)
# chain: MSRQTKMFGEKAFDLLKELERSSQTIPAFDDDGVRQVLEEIKAIFEENVAQASSYNASGDRSLWPLLNFRHAALQRNKRCLLAYLYERCRRIKALRWEFGPIIPGDIKQALCEPEVTFFNNYSKSLAAYMCSAGYNQGLPIDLTNNLRPPKSLYIEVRCMEDYGKFELDDGEVIHLKKNSQHYLPRAQVESLVRQGILHHIA
# notes: Psf1, Drosophila melanogaster, subunit of GINS; the printed B-domain region 185-202 ends at the C-terminus; source: Hi5 cells, co-infection with baculoviruses; purified as part of the CMG (anti-FLAG agarose, Mono S, Mono Q) and in whole cell lysate
# B2: Cdc45 (natural protein, Drosophila melanogaster, UniProt O96989 1-575, looked up)
# chain: MFVQDLRNDFYRQLVGKRILIVVNYDIDAICASRILQALFKYDHMLYTVVPIMGVTGLKRAYGEHQGDVKYVVLVNCGGCVDIVELLQPSDDVTFFICDSHRPLDVCNIYSDRQVCILGDASLEENIPAFETIFYDSEGEDEDEDESSDTEQQHDDSGAGESDQEDQAPRSRKLSRLERHEQRILKQRARRQWESERDRIMFEYTQFSYYGRSAALMVFELAWKLSKDNMDLLWWAIVGITEQLLLGKIESGAYTLELEQIQSHVSRLTNKTNDQNTMSASKITFENDLHLVLYRHWPVTESMRYSRYSSCQLKLWTLRGEKRLHELLLEMGLPLVHARQTYGAMDLVLRKEFFSMVERLAEKYDIADIVYGTFTLSYGYRSRYAAADYVYALLAIMESVKKHKTPEDCFLEASDALSRQHKQLLSAGIDQAKLLHAAVFRQVQSSLEARQVHSAGSFFYYVLQEEHAFFSYPYALGLLARFLLRGHVATSRARQASDLPLIASCPLNASEGMCLLVGIVPVREDSPRNFFGKAFEQAAQKSGVALLQDFFEPAVVQLRQSDLTRFLDSLTVLLA
# notes: Cdc45, Drosophila melanogaster; also called DmCdc45; source: Hi5 cells, co-infection with baculoviruses; purified as part of the CMG (anti-FLAG agarose, Mono S, Mono Q) and in whole cell lysate
# Legend:
# [1] = target: Cdc45/Mcm2-7/GINS (CMG) helicase (Drosophila melanogaster) (UniProt P49735); test: negative-stain EM, reference-free 2D class averages; purified CMG with 3'-tailed DNA and ATPγS; dimeric particles compared with 2D projections of double-hexamer models in six registers
# Cdc45 = target: B2; test: negative-stain EM single-particle reconstruction; purified CMG mixed with a 20 bp duplex DNA bearing a 3' dT40 tail and 0.1 mM ATPγS, Superose 6 peak fraction, uranyl formate stain; 18 Å map; crystal structures and homology models docked; settings: both partners purified
# Mcm5 = target: T1, Mcm5; test: as above; settings: both partners purified
# Mcm2 = target: T2, Mcm2; test: as above; settings: both partners purified
molecule,measurement,setting,value
Cdc45/Mcm2-7/GINS (CMG) helicase (from UniProt P49735 1-887; Q9XYU1 1-819; Q26454 1-866; Q9VGW6 1-733; Q9V461 1-817; Q9XYU0 1-720; Q9W0I7 1-202; Q9VQY9 1-203; Q9VBI1 1-228; O96989 1-575) (complex),percent of CMG particles in dimers,[1],5%
same,stoichiometry N,[1],2
B1,binding result,Cdc45,binds
B2,binding result,Mcm5,binds
same,binding result,Mcm2,binds
